Experimental data reported in patent US20230348629A1 (BEIJING MABWORKS BIOTECH, published 2023).

B1: MBS310-6 (bispecific antibody, human IgG1, kappa)
heavy 1: not shown
heavy 2: not shown
light 1: not shown
light 2: EIVLTQSPGTLSLSPGERATMTCRASSSISSTYLHWYQQKPGASPKLLIYNTQNLASGVPARFSGSGSGTSYTLTISRLEPEDFAVYYCQQFGGYPLITFGAGTKLELKRTVAAPSVFIFPPSDEQLKSGTASVVCLLNNFYPREAKVQWKVDNALQSGNSQESVTEQDSKDSTYSLSSTLTLSKADYEKHKVYACEVTHQGLSSPVTKSFNRGEC
notes: two half antibodies (knob and hole) expressed in HEK-293F cells and assembled in vitro; also called asymmetrical anti-VEGF/TIGIT bispecific antibody; anti-TIGIT/VEGF bispecific antibody
B2: MBS310-4 (bispecific antibody, human IgG1, kappa)
heavy: not shown
light: EIVLTQSPGTLSLSPGERATMTCRASSSISSTYLHWYQQKPGASPKLLIYNTQNLASGVPARFSGSGSGTSYTLTISRLEPEDFAVYYCQQFGGYPLITFGAGTKLELKRTVAAPSVFIFPPSDEQLKSGTASVVCLLNNFYPREAKVQWKVDNALQSGNSQESVTEQDSKDSTYSLSSTLTLSKADYEKHKVYACEVTHQGLSSPVTKSFNRGEC
notes: also called symmetrical anti-VEGF/TIGIT bispecific antibody
B3: bevacizumab (antibody, V domains shown)
VH: EVQLVESGGGLVQPGGSLRLSCAASGYTFTNYGMNWVRQAPGKGLEWVGWINTYTGEPTYAADFKRRFTFSLDTSKSTAYLQMNSLRAEDTAVYYCAKYPHYYGSSHWYFDVWGQGTLVTVSS
VL: DIQMTQSPSSLSASVGDRVTITCSASQDISNYLNWYQQKPGKAPKVLIYFTSSLHSGVPSRFSGSGSGTDFTLTISSLQPEDFATYYCQQYSTVPWTFGQGTKVEIKR
notes: also called Avastin bevacizumab
B4: 70E11VH2VL4 (antibody, human IgG1, kappa, V domains shown)
VH: QVQLVQSGAEVKKPGASVKVSCKASGYTFTSYNVHWVRQAPGQGLEWMGTIYPGNLATSYNQKFKGRVTLTADTSTSTVYMELSSLRSEDTAVYYCARSGTMDYWGQGTTVTVSS
VL: EIVLTQSPGTLSLSPGERATMTCRASSSISSTYLHWYQQKPGASPKLLIYNTQNLASGVPARFSGSGSGTSYTLTISRLEPEDFAVYYCQQFGGYPLITFGAGTKLELKR
notes: Humanized anti-TIGIT antibody, human IgG1 and kappa constant regions; also called anti-TIGIT antibody 70E11VH2VL4; monospecific anti-TIGIT antibody

Key:
[1] = biological target: T1, TIGIT-mFc molecules (Cat #: 10917-H38H, Sino Biological) (UniProt Q495A1 22-141); experiment: FACS blocking assay: antibody titrated and premixed with 5 ug/ml TIGIT-mFc, binding of TIGIT-mFc to human PVR on A549/human PVR cells
T1 construct: not shown: mFc (mouse Fc)
T1 sequence (looked up): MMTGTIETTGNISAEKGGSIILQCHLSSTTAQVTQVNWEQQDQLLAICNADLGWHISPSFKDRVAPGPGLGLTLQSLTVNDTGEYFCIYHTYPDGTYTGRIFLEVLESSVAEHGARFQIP
Description: After incubation at 4° C. for 1 h, the plate was washed with PBS for three times, and then added with PE-goat-anti-mouse IgG (1:500, Cat #:31861, Thermofisher, USA). After incubation at 4° C. for 1 h, the plate was washed with PBS for three times, and measured for fluorescence using a cytometry (BD).

[2] = biological target: T2, human TIGIT on HEK293A/human TIGIT cells (human, UniProt Q495A1 22-244); experiment: FACS on HEK293A/human TIGIT cells, antibody titrated, MFI
T2 construct: also called cell surface human TIGIT; human TIGIT-expressing HEK293A cells
T2 sequence: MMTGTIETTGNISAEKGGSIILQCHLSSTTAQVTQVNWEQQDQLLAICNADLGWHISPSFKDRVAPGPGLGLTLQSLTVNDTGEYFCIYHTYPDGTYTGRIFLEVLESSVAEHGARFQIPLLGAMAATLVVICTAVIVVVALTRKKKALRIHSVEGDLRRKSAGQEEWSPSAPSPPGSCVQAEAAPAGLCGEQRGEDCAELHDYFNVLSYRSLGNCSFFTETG
Description: (§1) Briefly, 10⁵ HEK293A cells in 100 μl cell culture medium were seeded onto a 96-well plate, which was later added with 50 μl serially diluted bispecific antibodies of the disclosure. After incubation at 4° C. for 1 h, the plate was washed with PBS for three times, added with APC-goat-anti-mouse IgG (1:500, Cat #: 405308, BioLegend, USA). After incubation at 4° C. for 1 h, the plate was washed with PBS for three times, and measured for fluorescence using a cytometry (BD).

[3] = biological target: T3, monkey TIGIT on HEK293A/monkey TIGIT cells (monkey); experiment: FACS on HEK293A/monkey TIGIT cells, antibody titrated, MFI
T3 construct: also called cell surface monkey TIGIT
T3 sequence (chain, as listed by the source limits assumed): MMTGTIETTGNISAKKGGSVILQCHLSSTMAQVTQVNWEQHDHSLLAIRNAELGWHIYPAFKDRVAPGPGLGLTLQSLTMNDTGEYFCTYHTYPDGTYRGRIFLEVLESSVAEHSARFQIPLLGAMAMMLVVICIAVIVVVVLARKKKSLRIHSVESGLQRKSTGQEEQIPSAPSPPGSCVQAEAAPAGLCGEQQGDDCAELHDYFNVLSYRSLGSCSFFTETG
Description: as §1

[4] = biological target: T2, human TIGIT on HEK293A/human TIGIT cells; experiment: FACS on HEK293A/human TIGIT cells, antibody titrated in the presence of 50 ug/ml free human VEGF-A
Description: as §1, with “of the disclosure and 50 μl free human VEGF-A molecules at the final concentration of 0 ng/ml, 50 ng/ml or 50 μg/ml (Cat #:11066-HNAN, Sino Biological, CN). After incubation” for “of the disclosure. After incubation”, “three times, and added with” for “three times, added with”

[5] = biological target: T2, human TIGIT on HEK293A/human TIGIT cells; experiment: cell-based or functional assay
[6] = biological target: T4, human VEGF-A molecules (Cat #:11066-HNAN, Sino Biological) (human, UniProt P15692-4 27-191); experiment: SPR (BIAcore 8K), human VEGF-A coupled to the chip, antibody injected
T4 construct: Bought protein; also called human/monkey VEGF; VEGF molecules
T4 sequence (P15692 other isoform, or with tags, fused parts or gaps limits assumed): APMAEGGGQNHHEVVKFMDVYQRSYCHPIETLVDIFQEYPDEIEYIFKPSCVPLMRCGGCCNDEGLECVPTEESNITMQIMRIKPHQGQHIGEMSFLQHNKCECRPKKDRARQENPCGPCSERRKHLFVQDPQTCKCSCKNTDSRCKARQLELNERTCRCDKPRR
Excerpt: (§2) Using BIAcore™ 8K instrument (GE Life Sciences, US), the binding affinity of the bispecific molecules of the disclosure to human TIGIT and VEGF was quantitatively measured. Briefly, 100-200 response units (RU) of human TIGIT-his protein (Cat #:10917-H08H, Sino Biological, CN) or human VEGF-A (Cat #:11066-HNAN, Sino Biological, CN) were coupled to CMS biosensor chips (Cat #:BR-1005-30, GE Life Sciences, US). The un-reacted groups were then blocked with 1M ethanolamine Serially diluted antibodies at concentrations ranging from 0.3 μM to 10 μM were injected into the SPR running buffer (HBS-EP buffer, pH7.4, Cat #:BR-1006-69, GE Life Sciences, US) at 30 μL/min. The binding affinity was calculated with the RUs of blank controls subtracted, and the association rate (kₐ) and dissociation rate (kd) were determined using the one-to-one Langmuir binding model (BIA Evaluation Software, GE Life Sciences, US). The equilibrium dissociation constant KD was calculated as the kd/kₐ ratio.

[7] = biological target: T5, human VEGF-C-his molecules (Cat #:VEC-H4225, Acrobiosystems) (human, UniProt P49767 103-227, limits assumed); experiment: ELISA, plate coated with human VEGF-C-his, antibody titrated (axis labelled MFI)
T5 construct: Bought protein; not shown: his tag
T5 sequence (looked up): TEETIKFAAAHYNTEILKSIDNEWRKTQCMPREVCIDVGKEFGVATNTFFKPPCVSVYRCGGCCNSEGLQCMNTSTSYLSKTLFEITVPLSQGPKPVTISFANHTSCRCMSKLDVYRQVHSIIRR
Description: (§3) Briefly, an ELISA plate was coated with 100 μl 500 ng/ml human VEGF-A molecules (Cat #:11066-HNAN, Sino Biological, CN), mouse VEGF-A molecules (Cat #:50159-MNAB, Sino Biological, CN), human VEGF-B-his molecules (Cat #:VE6-H5225, Acrobiosystems Co., CN) and human VEGF-C-his molecules (Cat #:VEC-H4225, Acrobiosystems Co., CN) respectively overnight at 4° C. […] The ELISA plate was added with freshly prepared Ultra-TMB (Cat #:555214, BD, USA), and left still for 5 min for color development. The absorbance was read at 450 nm using SpectraMax® i3X microplate reader.

[8] = biological target: T2, human TIGIT on HEK293A/human TIGIT cells; experiment: FACS on HEK293A/human TIGIT cells, antibody titrated, no free VEGF-A
Description: as §1, with “of the disclosure and 50 μl free human VEGF-A molecules at the final concentration of 0 ng/ml, 50 ng/ml or 50 μg/ml (Cat #:11066-HNAN, Sino Biological, CN). After incubation” for “of the disclosure. After incubation”, “three times, and added with” for “three times, added with”

[9] = biological target: T2, human TIGIT on HEK293A/human TIGIT cells; experiment: as above; remark: listed apart in the source
Description: as §1, with “of the disclosure and 50 μl free human VEGF-A molecules at the final concentration of 0 ng/ml, 50 ng/ml or 50 μg/ml (Cat #:11066-HNAN, Sino Biological, CN). After incubation” for “of the disclosure. After incubation”, “three times, and added with” for “three times, added with”

[10] = biological target: T4, human VEGF-A molecules (Cat …); experiment: ELISA, plate coated with human VEGF-A, antibody titrated, OD450
Description: as §3

[11] = biological target: T2, human TIGIT on HEK293A/human TIGIT cells; experiment: FACS on HEK293A/human TIGIT cells, antibody titrated in the presence of 50 ng/ml free human VEGF-A
Description: as §1, with “of the disclosure and 50 μl free human VEGF-A molecules at the final concentration of 0 ng/ml, 50 ng/ml or 50 μg/ml (Cat #:11066-HNAN, Sino Biological, CN). After incubation” for “of the disclosure. After incubation”, “three times, and added with” for “three times, added with”

[12] = biological target: T6, human TIGIT-his protein (Cat #:10917-H08H, Sino Biological) (human, UniProt Q495A1 22-141); experiment: SPR (BIAcore 8K), human TIGIT-his coupled to the chip, antibody injected
T6 construct: Bought soluble protein; also called TIGIT molecules; not shown: his tag
T6 sequence: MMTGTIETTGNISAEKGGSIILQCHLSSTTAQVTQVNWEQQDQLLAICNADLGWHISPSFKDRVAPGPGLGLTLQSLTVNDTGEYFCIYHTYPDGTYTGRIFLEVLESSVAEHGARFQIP
Excerpt: as §2

Row | Binder | IC50 (read off the curve) [1] [nM] | EC50 (read off the curve) [2] [nM] | EC50 (read off the curve) [3] [nM] | EC50 (read off the curve) [4] [nM] | EC50, NK92 (NK92MI-CD16a) cell-mediated ADCC, LDH release [5] [nM] | EC50, PBMC-mediated ADCC, death rate of GFP+ cells by FACS [5] [nM] | Kd [6] [nM] | binding result [7] | EC50 (read off the curve) [8] [nM] | EC50 (read off the curve) [9] [nM] | EC50 (read off the curve) [10] [nM] | EC50 (read off the curve) [11] [nM] | Kd [12] [nM] | binding result [10]
1 | B1 | ~4 | ~0.8 | ~1 | ~0.8 | 0.268 | 0.183 | 0.166 | no binding (tested: about 100 nM (LOG.Con about 2)) | ~1 | ~0.9 | ~0.6 | ~1 | 12.8 | –
2 | B2 | – | – | – | – | – | – | – | – | – | – | – | – | – | binds
3 | B3 | – | – | – | – | – | – | – | no binding (tested: about 100 nM (LOG.Con about 2)) | – | – | – | – | – | –
4 | B4 | ~2 | ~0.4 | ~0.2 | – | 0.142 | 0.162 | – | – | – | – | – | – | 8.05 | –
